From paper PMC6126647

Biological target: MmCPDII (class II CPD photolyase) (UniProt Q8PYK9 1-464)
Experiment: X-ray crystallography (2.7 A); oxidized FAD; dark, unrepaired CPD; Co-crystallization: protein in 10 mM Tris-HCl pH 8.0, 100 mM NaCl with 1.25x dsDNA (in 100 mM Tris-HCl pH 8.0, 100 mM NaCl), 30 min in dark; mixed 1:1 with 0.1

B1: 14-mer duplex with natural phosphodiester-linked cis-syn CPD (PDM DNA) (dsDNA)
DNA 1: ATCGGCTTCGCGCA
DNA 2: TGCGCGAAGCCGAT
modifications: cis-syn cyclobutane thymine dimer T7<>T8 in strand 1, natural intra-lesion phosphodiester
- binding result: binds
